Data taken from paper PMC2175354.

Columns and labels:
Assay in all cases: EMSA
MyoD full-length = MyoD full-length (Mus musculus, UniProt P10085 1-318)
MyoD ΔR1R2R3 = MyoD ΔR1R2R3 (Mus musculus, UniProt P10085 1-318, del102-104;del110-112;del119-121)
MyoD bHLH domain = MyoD bHLH domain (UniProt P10085 102-162)
MyoD R111C = MyoD R111C (Mus musculus, UniProt P10085 1-318, R111C)
MyoD ΔR2R3 = MyoD ΔR2R3 (Mus musculus, UniProt P10085 1-318, del110-112;del119-121)
MyoD ΔR1R3 = MyoD ΔR1R3 (Mus musculus, UniProt P10085 1-318, del102-104;del119-121)
[1] = molecular target: MyoD Δ1-93 (activation and C/H regions deleted) (Mus musculus, UniProt P10085 94-318, del1-93)
MyoD Δ102-114 = MyoD Δ102-114 (UniProt P10085 1-318, del102-114)
MyoD ΔR3 = MyoD ΔR3 (Mus musculus, UniProt P10085 1-318, del119-121)
[2] = molecular target: MyoD Δ3-56 (activation region deleted) (Mus musculus, UniProt P10085 1-318, del3-56)
[3] = molecular target: MyoD Δ1-121 (activation, C/H and basic regions deleted) (Mus musculus, UniProt P10085 122-318, del1-121)

B1: E-box DNA (dsDNA)
DNA 1: TCGATCCCCCAACACCTGCTGCCTGA
DNA 2: TCAGGCAGCAGGTGTTGGGGGATCGA
binding result (MyoD full-length): binds
binding result (MyoD ΔR1R2R3): no binding
binding result (MyoD bHLH domain): binds
binding result (MyoD R111C): no binding
binding result (MyoD ΔR2R3): no binding
binding result (MyoD ΔR1R3): no binding
binding result [1]: binds
binding result (MyoD Δ102-114): no binding
binding result (MyoD ΔR3): no binding
binding result [2]: binds
binding result [3]: no binding
